Test results from patent publication US20260242478A1 (published 2026).

How the values were obtained:
Test in all cases: binding ELISA, biotinylated peptide on neutravidin plate, Fab titrated
Peptide-143 = target: T1, Peptide-143
T1 peptide: TCAAGAAWGWPLCF

Peptide-147 = target: T2, Peptide-147
T2 peptide: LCAAGATYPWPTCL

Peptide-152 = target: T3, Peptide-152
T3 peptide: TCSAGATWAWPLCF

Peptide-141 = target: T4, Peptide-141
T4 peptide: TCSAGATYTWPKCF

Peptide-145 = target: T5, Peptide-145
T5 peptide: TCSAGAAYPWPLCL

Peptide-154 = target: T6, Peptide-154
T6 peptide: TCAAGAHYPWPACL

Peptide-41 = target: T7, Peptide-41
T7 peptide: MDWCPRDLWVHCFA

Peptide-84 = target: T8, Peptide-84
T8 peptide: YCAGHSPINIGKCL

Peptide-92 = target: T9, Peptide-92
T9 peptide: SCAAGASYAWPYCL

Peptide-87 = target: T10, Peptide-87
T10 peptide: YCAGHAWQYINKCL

Peptide-79 = target: T11, Peptide-79
T11 peptide: ACDTYFAGMINECF

- EC50 (Peptide-143): 5.6 nM
- EC50 (Peptide-147): 25.8 nM
- EC50 (Peptide-152): 15.6 nM
- EC50 (Peptide-141): 15.7 nM
- EC50 (Peptide-145): 4.4 nM
- EC50 (Peptide-154): 4.2 nM
- EC50 (Peptide-41): 490 nM
- EC50 (Peptide-84): 337 nM
- EC50 (Peptide-92): 54 nM
- EC50 (Peptide-87): 49 nM
- EC50 (Peptide-79): 97 nM
B1: anti-CD28 Fab (Fab, V domains shown)
VH: QVQLVQSGAEVKKPGASVKVSCKASGYTFTSYYIHWVRQAPGQGLEWIGSIYPGNVNTNYNEKFKDRATLTVDTSISTAYMELSRLRSDDTAVYFCTRSHYGLDWNFDVWGQGTTVTVSS
VL: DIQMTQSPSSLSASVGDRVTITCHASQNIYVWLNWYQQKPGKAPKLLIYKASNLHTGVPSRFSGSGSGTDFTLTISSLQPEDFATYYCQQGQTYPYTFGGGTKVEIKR
